# According to paper PMC2267068, “Comparative Analysis of Metal Binding Characteristics of Copper Chaperone Proteins, Atx1 and ATOX1” (Bioinorganic Chemistry and Applications, 2004):
# “And” between values parts separate entries of the source, which are not always exact repeats. Equal values may be shown once.
# T1: Atx1 (yeast copper chaperone) (yeast (Saccharomyces cerevisiae)), P38636
# T1 chain: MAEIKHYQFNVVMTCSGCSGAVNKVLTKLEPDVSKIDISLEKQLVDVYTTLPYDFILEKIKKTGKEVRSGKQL
# T2: ATOX1 (human copper chaperone), wild type (human), O00244
# T2 chain: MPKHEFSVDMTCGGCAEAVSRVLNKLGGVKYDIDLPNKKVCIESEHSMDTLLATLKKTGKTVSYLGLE
# Key:
# [1] = biological target: T1, Atx1 (yeast copper chaperone) (yeast …); assay: cross-linking; EGS (spacer arm 16.1 A), Cd(II) + DTT; products on SDS-PAGE; settings: remark: other sources report otherwise
# [2] = biological target: T1, Atx1 (yeast copper chaperone) (yeast …); assay: SEC; Bio-Gel P-10 column (1.5 x 60 cm), 20 mM MES pH 6.0; Cd(II) complex (metal 1:1, DTT 3:1); 0.3, 0.5 and 0.3 mM ATOX1, C41S-ATOX1 and Atx1; size against myoglobin (18 kDa) and cytochrome C (12.5 kDa); settings: remark: other sources report otherwise
# [3] = biological target: T1, Atx1 (yeast copper chaperone) (yeast …); assay: SEC; Bio-Gel P-10 column (1.5 x 60 cm), 20 mM MES pH 6.0; reduced apoprotein (+DTT 3:1); 0.3, 0.5 and 0.3 mM ATOX1, C41S-ATOX1 and Atx1; size against myoglobin (18 kDa) and cytochrome C (12.5 kDa); settings: remark: other sources report otherwise
# [4] = biological target: T1, Atx1 (yeast copper chaperone) (yeast …); assay: cross-linking; Hg(II) + DTT; DMS or EGS for ATOX1, EGS for Atx1; products on SDS-PAGE; settings: remark: other sources report otherwise
# [5] = biological target: T2, ATOX1 (human copper chaperone), wild …; assay: cross-linking; EGS (spacer arm 16.1 A), Cd(II) + DTT; products on SDS-PAGE; settings: remark: other sources report otherwise
# [6] = biological target: T2, ATOX1 (human copper chaperone), wild …; assay: SEC; Bio-Gel P-10 column (1.5 x 60 cm), 20 mM MES pH 6.0; Cd(II) complex (metal 1:1, DTT 3:1); 0.3, 0.5 and 0.3 mM ATOX1, C41S-ATOX1 and Atx1; size against myoglobin (18 kDa) and cytochrome C (12.5 kDa); settings: remark: other sources report otherwise
# [7] = biological target: T2, ATOX1 (human copper chaperone), wild …; assay: SEC; Bio-Gel P-10 column (1.5 x 60 cm), 20 mM MES pH 6.0; reduced apoprotein (+DTT 3:1); 0.3, 0.5 and 0.3 mM ATOX1, C41S-ATOX1 and Atx1; size against myoglobin (18 kDa) and cytochrome C (12.5 kDa); settings: remark: other sources report otherwise
# [8] = biological target: T2, ATOX1 (human copper chaperone), wild …; assay: cross-linking; DMS (spacer arm 11 A), Cd(II) + DTT; products on SDS-PAGE; settings: remark: other sources report otherwise
# [9] = biological target: T2, ATOX1 (human copper chaperone), wild …; assay: cross-linking; Hg(II) + DTT; DMS or EGS for ATOX1, EGS for Atx1; products on SDS-PAGE; settings: remark: other sources report otherwise
# [10] = biological target: T2, ATOX1 (human copper chaperone), wild …; assay: cross-linking; metal complexes + DTT (which metals not told), DMS or EGS; faint higher bands on SDS-PAGE; settings: remark: other sources report otherwise
# [11] = biological target: the molecule itself; assay: SEC; Bio-Gel P-10 column (1.5 x 60 cm), 20 mM MES pH 6.0; reduced apoprotein (+DTT 3:1); 0.3, 0.5 and 0.3 mM ATOX1, C41S-ATOX1 and Atx1; size against myoglobin (18 kDa) and cytochrome C (12.5 kDa)
binder,measurement,setting,value
"Atx1 (yeast copper chaperone), P38636 1-73 (natural protein) MAEIKHYQFNVVMTCSGCSGAVNKVLTKLEPDVSKIDISLEKQLVDVYTTLPYDFILEKIKKTGKEVRSGKQL",stoichiometry N,[1],2
same,stoichiometry N,[2],2
same,stoichiometry N,[3],2
same,stoichiometry N,[4],2
"ATOX1 (human copper chaperone), wild type, O00244 1-68 (natural protein) MPKHEFSVDMTCGGCAEAVSRVLNKLGGVKYDIDLPNKKVCIESEHSMDTLLATLKKTGKTVSYLGLE",stoichiometry N,[5],2
same,stoichiometry N,[6],2
same,stoichiometry N,[7],2
same,stoichiometry N,[8],2
same,stoichiometry N,[9],2
same,stoichiometry N,[10],3 and 4
"C41S-ATOX1 (natural protein, human, UniProt O00244 1-68, looked up, ATOX1 (HAH1), human copper chaperone, with the non-conserved Cys 41 mutated to Ser; Made on the ATOX1 construct in pGEX-6P-2 to imitate Atx1, which lacks this Cys; also called C41S-ATOXI; source: E. coli BL21 (DE3), GST fusion from pGEX-6P-2, purified, GST removed with PreScission protease; not shown: GST, N-terminal, cleaved) MPKHEFSVDMTCGGCAEAVSRVLNKLGGVKYDIDLPNKKVSIESEHSMDTLLATLKKTGKTVSYLGLE",stoichiometry N,[11],2
